Kd data for one substance are collected here from PMC4197845.

The target of assay [1] is epidermal growth factor receptor on live cells (human (endogenous in UM-SCC-14C and A431)) (UniProt P00533). Put plainly: radioligand binding.
The target is the same in assay [2]. Briefly: radioligand binding. This is another data set of the same source.

Where two headings read alike, the source gives them in different places.

As a reminder, the Kd is the concentration at which binding is half-saturated. With “bi-paratopic nanobody 9G8-7D12 (bispecific antibody)”, the Kd in assay [1] amounted to 7.5 nM; in assay [2] it was 7.1 nM.
